{"source": "patent US20260263554A1", "about": "“COMPOSITION COMPRISING CPNE7 PROTEIN OR CPNE7 PROTEIN-DERIVED PEPTIDE FOR REMOVING REACTIVE OXYGEN SPECIES IN CELLS” (HYSENSBIO CO., LTD, priority 2022, published 2026)", "molecules": {"B1": {"name": "CPNE7 recombinant protein: recombinant Copine-7 (CPNE7) protein (protein, UniProt Q9UBL6 1-633, looked up)", "Copine-7": "MSAGSERGAAATPGGLPAPCASKVELRLSCRHLLDRDPLTKSDPSVALLQQAQGQWVQVGRTEVVRSSLHPVFSKVFTVDYYFEEVQRLRFEVYDTHGPSGFSCQEDDFLGGMECTLGQPAQKWLLQVVMRVSVDVLGPAGHCAKHFLCCTESSHLARTGPSFLLRYDDLCLPWATAGAVRWWTCRGGHTQGWQIVAQKKVTRPLLLKFGRNAGKSTITVIAEDISGNNGYVELSFRARKLDDKDLFSKSDPFLELYRVNDDQGLQLVYRTEVVKNNLNPVWEAFKVSLSSLCSCEETRPLKCLVWDYDSRGKHDFIGEFSTTFEEMQKAFEEGQAQWDCVNPKYKQKRRSYKNSGVVVLADLKFHRVYSFLDYIMGGCQIHFTVAIDFTASNGDPRNSCSLHYINPYQPNEYLKALVSVGEICQDYDSDKRFSALGFGARIPPKYEVSHDFAINFNPEDDECEGIQGVVEAYQNCLPRVQLYGPTNVAPIISKVARVAAAEESTGKASQYYILLILTDGVVTDMADTREAIVRASRLPMSIIIVGVGNADFTDMQVLDGDDGVLRSPRGEPALRDIVQFVPFRELKNASPAALAKCVLAEVPKQVVEYYSHRGLPPRSLGVPAGEASPGCTP"}}, "key": {"[1]": {"tested_on": "Human dental pulp cells (hDPCs)", "experiment": "Optical microscope observation of hDPCs after H2O2 and test substance", "assay_type": "cell-based", "details": "H2O2 5 uM, 100 uM, 1 mM or 2 mM, 100 ng/ml recombinant CPNE7 protein, 24 hours, compared to control without rCPNE7", "description": "Human dental pulp cells (hDPCs) were cultured in an α-MEM medium containing 10% FBS under 37° C. and 5% CO2 conditions.\nhDPCs were seeded into 35 mm culture dishes at a density of 1×10^5 cells, cultured for 24 hours, treated with H2O2 at a concentration of 5 uM, 100 uM, 1 mM, or 2 mM, respectively, and then treated with 100 ng/ml of a recombinant CPNE7 protein and cultured for 24 hours. After the culture was completed, the cultured cells were washed with PBS, and observed using an optical microscope. At this time, the hDPCs cultured without treating the recombinant CPNE7 protein (rCPNE7) were used as the control.\nCultured hDPC cells were seeded into 6-well plates at a density of 1×10^5 cells per well, cultured for 24 hours, and then treated with 1 mM hydrogen peroxide (H2O2) and treated with Selcopintide at concentrations of 1 μg/mL, 10 μg/mL, 100 μg/mL, and 500 μg/mL for 24 hours. Untreated hDPCs were used as the control."}, "[2]": {"tested_on": "hDPCs", "experiment": "Immunofluorescence staining with γ-H2A.X (DNA damage marker)", "assay_type": "cell-based, human", "details": "1 mM H2O2, 100 ng/mL CPNE7 recombinant protein, 24 hours, vs 1 mM H2O2 group", "description": "Cultured hDPCs were seeded into 35 mm culture dishes for a confocal microscope at a density of 1×10^5 cells, cultured for 24 hours, and then treated with 1 mM H2O2 and treated with 100 ng/mL of rCPNE7. After 24 hours, the cells were fixed with 4% paraformaldehyde.\nImmunofluorescence staining using a γ-H2A.X antibody was performed on the fixed cells to compare intensity.\nCultured hDPCs were seeded into 35 mm culture dishes for a confocal microscope at a density of 1×10^5 cells, cultured for 24 hours, and then treated with 1 mM H2O2 and treated with 10 μg/mL of Selcopintide. After 24 hours, the cells were fixed with 4% paraformaldehyde."}, "[3]": {"tested_on": "hDPCs", "experiment": "Beta-galactosidase (B-gal) staining, cell aging", "assay_type": "cell-based, human", "details": "1 mM H2O2, 100 ng/mL rCPNE7, 12 or 24 hours, compared to H2O2-only-treated group", "description": "For this purpose, cultured hDPCs were seeded into 6-well plates at a density of 1×10^5 cells, cultured for 24 hours, and then treated with 1 mM H2O2 and treated with 100 ng/mL of rCPNE7. After 12 or 24 hours, the cells were fixed with 4% paraformaldehyde.\nNext, B-gal staining was performed on the fixed cells for 24 hours to compare the degree of cell aging."}, "[4]": {"tested_on": "hDPCs", "experiment": "Reactive oxygen species level with DCFDA, confocal microscope", "assay_type": "cell-based, human", "details": "1 mM H2O2, 100 ng/mL rCPNE7, imaged for approximately one hour", "description": "Cultured hDPCs were seeded into 35 mm culture dishes for a confocal microscope at a density of 1×10^5 cells, cultured for 24 hours, and then treated with 1 mM H2O2 and treated with 100 ng/mL of rCPNE7. Then, images were taken for approximately one hour using a confocal microscope.\nCultured hDPCs were seeded into 35 mm culture dishes for a confocal microscope at a density of 1×10^5 cells, cultured for 24 hours, and then treated with 1 mM H2O2 and treated with 10 μg/mL of Selcopintide. Thereafter, images were taken for approximately one hour using a confocal microscope."}, "[5]": {"tested_on": "endogenous antioxidant enzymes in hDPC cells", "experiment": "mRNA levels of endogenous antioxidant enzymes by RT-PCR", "assay_type": "cell-based, human", "details": "hDPCs, 1 mM H2O2, CPNE7 recombinant protein 100 ng/mL or Selcopintide 10 ug/mL", "description": "Cultured hDPCs were seeded into 60 mm culture dishes at a density of 4×10^5 cells, cultured for 24 hours, and then treated with 1 mM H2O2 and treated with the CPNE7 recombinant protein (100 ng/mL) and Selcopintide (10 ug/mL). After 30 minutes and one hour, the mRNA levels of Sod1, 2, and 3, catalase, Gpx7, Hmox1, and Txmd1 were checked."}}}
{"molecule": "B1", "values": [{"measurement": "cell viability (optical microscope)", "setting": "[1]", "result": "higher"}, {"measurement": "accumulation of DNA damage (γ-H2A.X intensity)", "setting": "[2]", "result": "significantly reduced"}, {"measurement": "B-gal positive hDPC cells", "setting": "[3]", "result": "significantly reduced"}, {"measurement": "amount of reactive oxygen species (DCFDA)", "setting": "[4]", "result": "decreased and became significant at approximately one hour"}, {"measurement": "mRNA of endogenous antioxidant enzymes Sod1, 2, and catalase", "setting": "[5]; after 30 minutes, compared to H2O2-only-treated group", "result": "significantly increased"}, {"measurement": "mRNA of Sod1 and Gpx7, and Hmox1 and Txrnd1", "setting": "[5]; after one hour", "result": "significantly increased"}]}
